From article PMC3553976 (Nucleic Acids Research, 2012)
Read-outs that look alike come from different tables or passages of the source.

T1: SF1^HH (residues 27–145) (human, UniProt Q15637 27-145)
T1 sequence: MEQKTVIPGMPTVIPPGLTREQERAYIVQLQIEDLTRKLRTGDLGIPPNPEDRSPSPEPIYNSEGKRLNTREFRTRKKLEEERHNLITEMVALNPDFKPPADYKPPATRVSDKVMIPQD

B1: U2AF65^UHM, C-terminal U2AF homology motif domain of U2AF65 (residues 372–475) (domain or fragment)
chain: GHPTEVLCLMNMVLPEELLDDEEYEEIVEDVRDECSKYGLVKSIEIPRPVDGVEVPGCGKIFVEFTSVFDCQKAMQGLTGRKFANRVVVTKYCDPDSYHRRDFW
B2: SF1^2-320 with the α1–α2 linker deleted (Δ75–90) (domain or fragment, human)
chain: ATGANATPLDFPSKKRKRSRWNQDTMEQKTVIPGMPTVIPPGLTREQERAYIVQLQIEDLTRKLRTGDLGIPPGTGKRLNTREFRTRKKLEEERHNLITEMVALNPDFKPPADYKPPATRVSDKVMIPQDEYPEINFVGLLIGPRGNTLKNIEKECNAKIMIRGKGSVKEGKVGRKDGQMLPGEDEPLHALVTANTMENVKKAVEQIRNILKQGIETPEDQNDLRKMQLRELARLNGTLREDDNRILRPWQSSETRSITNTTVCTKCGGAGHIASDCKFQRPGDPQSAQDKARMDKEYLSLMAEL
B3: SF1^2-320 with helix α1 deleted (Δ35–68) (domain or fragment, human)
chain: ATGANATPLDFPSKKRKRSRWNQDTMEQKTVIPGTDLGIPPNPEDRSPSPEPIYNSEGKRLNTREFRTRKKLEEERHNLITEMVALNPDFKPPADYKPPATRVSDKVMIPQDEYPEINFVGLLIGPRGNTLKNIEKECNAKIMIRGKGSVKEGKVGRKDGQMLPGEDEPLHALVTANTMENVKKAVEQIRNILKQGIETPEDQNDLRKMQLRELARLNGTLREDDNRILRPWQSSETRSITNTTVCTKCGGAGHIASDCKFQRPGDPQSAQDKARMDKEYLSLMAEL
B4: SF1-Δα2, SF1^2-320 with helix α2 deleted (Δ96–128) (domain or fragment, human)
chain: ATGANATPLDFPSKKRKRSRWNQDTMEQKTVIPGMPTVIPPGLTREQERAYIVQLQIEDLTRKLRTGDLGIPPNPEDRSPSPEPIYNSEGKRLNGTYKPPATRVSDKVMIPQDEYPEINFVGLLIGPRGNTLKNIEKECNAKIMIRGKGSVKEGKVGRKDGQMLPGEDEPLHALVTANTMENVKKAVEQIRNILKQGIETPEDQNDLRKMQLRELARLNGTLREDDNRILRPWQSSETRSITNTTVCTKCGGAGHIASDCKFQRPGDPQSAQDKARMDKEYLSLMAEL
B5: His6-tagged SF1^2-320 (domain or fragment, human, UniProt Q15637 2-320, looked up)
chain: ATGANATPLDFPSKKRKRSRWNQDTMEQKTVIPGMPTVIPPGLTREQERAYIVQLQIEDLTRKLRTGDLGIPPNPEDRSPSPEPIYNSEGKRLNTREFRTRKKLEEERHNLITEMVALNPDFKPPADYKPPATRVSDKVMIPQDEYPEINFVGLLIGPRGNTLKNIEKECNAKIMIRGKGSVKEGKVGRKDGQMLPGEDEPLHALVTANTMENVKKAVEQIRNILKQGIETPEDQNDLRKMQLRELARLNGTLREDDNRILRPWQSSETRSITNTTVCTKCGGAGHIASDCKFQRPGDPQSAQDKARMDKEYLSLMAEL
B6: SF1 (residues 1–260) (domain or fragment, human, UniProt Q15637 1-260, looked up)
chain: MATGANATPLDFPSKKRKRSRWNQDTMEQKTVIPGMPTVIPPGLTREQERAYIVQLQIEDLTRKLRTGDLGIPPNPEDRSPSPEPIYNSEGKRLNTREFRTRKKLEEERHNLITEMVALNPDFKPPADYKPPATRVSDKVMIPQDEYPEINFVGLLIGPRGNTLKNIEKECNAKIMIRGKGSVKEGKVGRKDGQMLPGEDEPLHALVTANTMENVKKAVEQIRNILKQGIETPEDQNDLRKMQLRELARLNGTLREDDNR
B7: pSF1, phosphorylated SF1 (residues 1–260) (domain or fragment)
chain: B6 chain
modifications: phosphoserine at 80 and 82

Columns and labels:
SF1^HH (residues 27–145) = target: T1, SF1^HH (residues 27–145); experiment: ITC
SF1^NTD (residues 1–145) [1] = target: T2, SF1^NTD (residues 1–145) (human, UniProt Q15637 1-145); experiment: ITC
SF1^NTD (residues 1–145) [2] = target: T2, SF1^NTD (residues 1–145); experiment: ITC; remark: listed apart in the source
[3] = target: T3, U2AF65^RRM123 (residues 147–475) (human, UniProt P26368 147-475); experiment: native gel or EMSA
Target sequence in this assay (P26368 147-475, one chain of several): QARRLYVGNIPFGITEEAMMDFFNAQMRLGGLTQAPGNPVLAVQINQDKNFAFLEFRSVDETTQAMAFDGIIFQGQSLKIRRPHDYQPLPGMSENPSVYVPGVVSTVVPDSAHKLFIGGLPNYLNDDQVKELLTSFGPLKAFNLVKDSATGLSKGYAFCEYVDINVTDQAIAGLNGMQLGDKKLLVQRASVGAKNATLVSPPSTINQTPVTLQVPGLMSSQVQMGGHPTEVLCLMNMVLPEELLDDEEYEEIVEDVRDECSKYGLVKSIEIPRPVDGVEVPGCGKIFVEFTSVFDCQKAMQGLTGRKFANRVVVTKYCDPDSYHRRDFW

[4] = target: B1; experiment: ITC
[5] = target: T3, U2AF65^RRM123 (residues 147–475); experiment: ITC

Binder: B1
- Kd (SF1^HH (residues 27–145)): > 100000 nM
- Kd (SF1^NTD (residues 1–145) [1]): 85 nM
- Kd (SF1^NTD (residues 1–145) [2]): 84 ± 23 nM

Binder: B2
- binding result [3]: binds

Binder: B3
- binding result [3]: binds

Binder: MATGANATPLDFPSKKRKRSRWNQD (peptide, UniProt Q15637 1-25, looked up) [SF1^ULM (residues 1–25)]
- Kd [4]: 127 ± 48 nM

Binder: B4
- binding result [3]: binds

Binder: B5
- binding result [3]: binds

Binder: B6
- Kd [5]: 114 ± 23 nM

Binder: B7
- Kd [5]: 96 ± 32 nM
